Assay results as given in patent US20250388696A1.
Changes are numbered by the printed parent chain. Where no end group is shown, it is not given here.

B1: ED-B specific fusion protein 219087 DOTA Lu (designed binder, part only; not given: ED-B binding domain, linker, part only)
chain, part: LAEAKVLALKELDKYGISNYYKNLINNAKTVEGVKALKEAIVAALP
modifications: also: DOTA coupled, site not given here, Lu loaded
B2: 215680 (designed binder, part only; not given: ED-B binding domain, linkers, tags, part only)
fusion protein, part: LAEAKVLALKELDKYGISNYYKNLIDKAKTIEGVEALKDAILAA
B3: 215035 (designed binder, part only; not given: ED-B binding domain, linkers, tags, part only)
fusion protein, part: LAEAKVLAIKELDKAGISDYYFNLINNAKTVEGVKALKAQIVAA
B4: 215055 (designed binder, part only; not given: ED-B binding domain, linkers, tags, part only)
fusion protein, part: B3 fusion protein, part with D19N, V31I
B5: 215052 (designed binder, part only; not given: ED-B binding domain, linkers, tags, part only)
fusion protein, part: B3 fusion protein, part with D19N, A36D
B6: 215652 (designed binder, part only; not given: ED-B binding domain, linkers, tags, part only)
fusion protein, part: B3 fusion protein, part with I9L, A15Y, D19N, F22K, V31I
B7: 219089 (designed binder, part only; not given: ED-B binding domain, linkers, tags, part only)
fusion protein, part: B3 fusion protein, part with D19N
B8: 215039 (designed binder, part only; not given: ED-B binding domain, linkers, tags, part only)
fusion protein, part: B3 fusion protein, part with V31I
B9: 215037 (designed binder, part only; not given: ED-B binding domain, linkers, tags, part only)
fusion protein, part: B3 fusion protein, part with E32D
B10: 219087 (designed binder, part only; not given: ED-B binding domain, linkers, tags, part only)
fusion protein, part: B1 chain, part
modifications: also: fusion protein, linkers and tags not given here
B11: 221191 (designed binder, part only; not given: FAP binding domain, linkers, tags, part only)
fusion protein, part: LAEAKVLALKELDKYGISNYYKNLINNAKTVEGVKALKEAIVAA
B12: 215663 (designed binder, part only; not given: ED-B binding domain, linkers, tags, part only)
fusion protein, part: B11 fusion protein, part with V31I, E39A
B13: 215673 (designed binder, part only; not given: ED-B binding domain, linkers, tags, part only)
fusion protein, part: B2 fusion protein, part with D26N, K27N, L42V
B14: 215661 (designed binder, part only; not given: ED-B binding domain, linkers, tags, part only)
fusion protein, part: B11 fusion protein, part with V31I, E39D, A40Q
B15: 215659 (designed binder, part only; not given: ED-B binding domain, linkers, tags, part only)
fusion protein, part: B11 fusion protein, part with V31I, K35E, E39A, A40Q
B16: 217806 (designed binder, part only; not given: ED-B binding domain, linkers, tags, part only)
fusion protein, part: B11 fusion protein, part
B17: 221215 (designed binder, part only; not given: FAP binding domain, linkers, tags, part only)
fusion protein, part: B11 fusion protein, part with V31I, E39D, A40E
B18: 215671 (designed binder, part only; not given: ED-B binding domain, linkers, tags, part only)
fusion protein, part: B11 fusion protein, part with V31I, E39D, A40E
B19: 215665 (designed binder, part only; not given: ED-B binding domain, linkers, tags, part only)
fusion protein, part: B11 fusion protein, part with V31I, E39A, A40Q, V42L
B20: 215670 (designed binder, part only; not given: ED-B binding domain, linkers, tags, part only)
fusion protein, part: B11 fusion protein, part with V31I
B21: 215674 (designed binder, part only; not given: ED-B binding domain, linkers, tags, part only)
fusion protein, part: B11 fusion protein, part with V31I, K35E
B22: 215675 (designed binder, part only; not given: ED-B binding domain, linkers, tags, part only)
fusion protein, part: B2 fusion protein, part with D26N, K27N

Target: extra domain B of oncofetal human fibronectin (ED-B) (human) (UniProt P02751)
Sequence (P02751 1266-1356 limits assumed): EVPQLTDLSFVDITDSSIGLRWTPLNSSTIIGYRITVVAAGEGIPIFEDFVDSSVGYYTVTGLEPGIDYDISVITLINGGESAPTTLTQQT
Test: SPR

| Kd | Binder |
| --- | --- |
| < 1 nM | B1 |

Target: human serum albumin (human) (UniProt P02768)
Sequence (P02768 25-609 limits assumed): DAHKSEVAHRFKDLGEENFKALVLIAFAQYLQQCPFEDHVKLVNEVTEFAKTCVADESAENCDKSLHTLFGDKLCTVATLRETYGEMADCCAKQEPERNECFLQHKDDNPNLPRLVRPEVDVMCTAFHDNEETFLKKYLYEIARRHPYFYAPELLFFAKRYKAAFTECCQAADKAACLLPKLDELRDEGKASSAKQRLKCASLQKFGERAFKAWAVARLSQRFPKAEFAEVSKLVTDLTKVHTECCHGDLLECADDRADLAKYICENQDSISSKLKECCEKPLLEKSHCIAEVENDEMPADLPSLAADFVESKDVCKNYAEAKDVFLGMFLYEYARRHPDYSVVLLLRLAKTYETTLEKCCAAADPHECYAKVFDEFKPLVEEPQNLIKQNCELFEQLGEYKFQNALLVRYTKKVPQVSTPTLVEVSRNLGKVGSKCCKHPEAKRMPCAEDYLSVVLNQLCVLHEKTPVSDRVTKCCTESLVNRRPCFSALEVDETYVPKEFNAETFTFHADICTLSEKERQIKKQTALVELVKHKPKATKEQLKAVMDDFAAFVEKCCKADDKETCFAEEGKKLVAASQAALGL
Test: SPR

| Kd | Binder |
| --- | --- |
| 1.3 nM | B1 |

Target: mouse serum albumin (mouse) (UniProt P07724)
Sequence (P07724 25-608 limits assumed): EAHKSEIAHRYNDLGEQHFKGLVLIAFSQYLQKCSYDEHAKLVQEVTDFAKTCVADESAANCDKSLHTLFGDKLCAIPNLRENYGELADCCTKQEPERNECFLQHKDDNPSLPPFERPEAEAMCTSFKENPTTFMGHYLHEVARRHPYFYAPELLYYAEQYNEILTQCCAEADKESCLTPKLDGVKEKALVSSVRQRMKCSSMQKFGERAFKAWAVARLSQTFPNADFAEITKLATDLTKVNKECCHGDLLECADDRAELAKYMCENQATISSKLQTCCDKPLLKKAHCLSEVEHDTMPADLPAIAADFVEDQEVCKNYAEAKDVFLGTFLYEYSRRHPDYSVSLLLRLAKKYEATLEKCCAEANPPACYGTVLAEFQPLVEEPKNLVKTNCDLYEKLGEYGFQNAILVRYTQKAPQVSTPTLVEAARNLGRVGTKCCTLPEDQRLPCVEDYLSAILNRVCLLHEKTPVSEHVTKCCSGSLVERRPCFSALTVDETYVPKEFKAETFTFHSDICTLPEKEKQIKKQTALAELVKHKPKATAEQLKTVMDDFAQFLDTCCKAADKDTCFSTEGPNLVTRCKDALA
Test: SPR

| Kd | Binder |
| --- | --- |
| 1.3 nM | B1 |

Target: human serum albumin (human) (UniProt P02768)
Test: SPR, HSA immobilised on the chip, pH 7.3, 1:1 Langmuir fit

| Kd | Binder |
| --- | --- |
| 0.8 nM | B2 |
| 2.4 nM | B3 |
| 1.7 nM | B4 |
| 7.9 nM | B5 |
| 4.1 nM | B6 |
| 12.5 nM | B7 |
| 2.2 nM | B8 |
| 19.9 nM | B9 |
| 1.4 nM | B10 |
| 3.8 nM | B11 |
| 2.6 nM | B12 |
| 3.3 nM | B13 |
| 3.8 nM | B14 |
| 13.4 nM | B15 |
| 1.5 nM | B16 |
| 7.9 nM | B17 |
| 7.3 nM | B18 |
| 3 nM | B19 |
| 3.4 nM | B20 |
| 5 nM | B21 |
| 1.1 nM | B22 |

Target: extra domain B of oncofetal human fibronectin (ED-B) (human) (UniProt P02751)
Test: SPR, ED-B immobilised on the chip, pH 7.3, 1:1 Langmuir fit

| Kd | Binder |
| --- | --- |
| 0.1 nM | B2 |
| 0.4 nM | B6 |
| 0.3 nM | B7 |
| 0.2 nM | B10 |
| 0.2 nM | B12 |
| 0.1 nM | B13 |
| 0.4 nM | B14 |
| 0.1 nM | B16 |
| 0.1 nM | B18 |
| 0.1 nM | B19 |
| 0.7 nM | B20 |
| 0.1 nM | B21 |
| 0.6 nM | B22 |

Target: hFAP-Fc (human) (UniProt Q12884)
Sequence (Q12884 26-760 limits assumed): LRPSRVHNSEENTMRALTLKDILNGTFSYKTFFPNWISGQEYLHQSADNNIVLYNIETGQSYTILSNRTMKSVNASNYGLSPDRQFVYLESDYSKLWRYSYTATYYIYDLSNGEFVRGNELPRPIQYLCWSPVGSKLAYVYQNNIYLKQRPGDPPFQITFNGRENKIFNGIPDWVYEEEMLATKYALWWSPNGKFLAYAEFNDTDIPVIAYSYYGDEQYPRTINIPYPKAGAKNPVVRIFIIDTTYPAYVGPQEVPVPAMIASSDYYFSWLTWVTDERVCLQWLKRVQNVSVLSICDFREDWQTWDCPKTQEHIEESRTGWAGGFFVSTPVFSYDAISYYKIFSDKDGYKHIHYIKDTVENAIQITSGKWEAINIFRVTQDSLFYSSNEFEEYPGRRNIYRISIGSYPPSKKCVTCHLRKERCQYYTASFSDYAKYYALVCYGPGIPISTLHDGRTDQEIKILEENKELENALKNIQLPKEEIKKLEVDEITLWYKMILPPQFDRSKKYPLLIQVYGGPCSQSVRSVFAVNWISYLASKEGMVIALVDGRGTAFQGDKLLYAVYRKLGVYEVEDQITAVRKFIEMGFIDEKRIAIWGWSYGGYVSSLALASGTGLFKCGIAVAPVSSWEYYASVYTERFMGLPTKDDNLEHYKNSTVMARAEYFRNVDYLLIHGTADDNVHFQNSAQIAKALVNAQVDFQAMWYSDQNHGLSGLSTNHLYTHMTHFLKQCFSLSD
Test: SPR, Fc-tagged FAP captured on immobilised protein A, pH 7.3, 1:1 Langmuir fit

| Kd | Binder |
| --- | --- |
| 3.8 nM | B11 |
| 8 nM | B17 |
